PMC5686127, “Accessibility of the histone H3 tail in the nucleosome for binding of paired readers” (Nature Communications, 2017)

Legend:
CHD4 PHD1 (aa 362–417) = molecular target: T1, CHD4 PHD1 (aa 362–417) (human, UniProt Q14839 362-417); experiment: other fluorescence titration; intrinsic tryptophan fluorescence; H3 (1-12) peptide added to 0.5-1 uM CHD4 PHD construct; 25 °C, pH 7.5, 75 mM NaCl, 3 mM DTT; apparent; settings: both partners purified
T1 construct: CHD4, human, first PHD finger, aa 362-417; Cloned into pGex6p1; also called first PHD finger of CHD4; source: E. coli BL21 DE3 pLysS, purified (glutathione Sepharose 4B, GST cleaved with Prescission protease)
T1 sequence (Q14839 362-417): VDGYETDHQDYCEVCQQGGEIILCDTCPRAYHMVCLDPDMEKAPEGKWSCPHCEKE

CHD4 PHD2 (443–498) = molecular target: T2, CHD4 PHD2 (443–498) (human, UniProt Q14839 443-498); experiment: as above; settings: both partners purified
T2 construct: CHD4, human, second PHD finger, aa 443-498; Cloned into pGex6p1; also called second PHD finger of CHD4; source: E. coli BL21 DE3 pLysS, purified (glutathione Sepharose 4B, GST cleaved with Prescission protease)
T2 sequence (Q14839 443-498): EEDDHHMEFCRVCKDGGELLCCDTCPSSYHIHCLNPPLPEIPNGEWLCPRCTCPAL

B1: histone H3 peptide (aa 1–12) (peptide, UniProt P68431 2-13, looked up)
peptide: ARTKQTARKSTG
notes: histone H3, aa 1-12, unmodified; also called H3 (1–12) peptide; histone peptide; source: synthetic peptide (University of Colorado Denver Peptide Core Facility)
Question: Which Kd (CHD4 PHD1 (aa 362–417)) does the source give for B1 here?
Answer: 4000 nM

Question: And the Kd (CHD4 PHD2 (443–498))?
Answer: 430 nM
